We go through one molecule from paper PMC5120866 (Cancer research, 2016).

This assay has as its target Integrin β3 (human (endogenous in ovarian cancer …, UniProt P05106 27-788)). The assay can be described thus: co-IP.

Sequence of Integrin β3 (human (P05106 27-788): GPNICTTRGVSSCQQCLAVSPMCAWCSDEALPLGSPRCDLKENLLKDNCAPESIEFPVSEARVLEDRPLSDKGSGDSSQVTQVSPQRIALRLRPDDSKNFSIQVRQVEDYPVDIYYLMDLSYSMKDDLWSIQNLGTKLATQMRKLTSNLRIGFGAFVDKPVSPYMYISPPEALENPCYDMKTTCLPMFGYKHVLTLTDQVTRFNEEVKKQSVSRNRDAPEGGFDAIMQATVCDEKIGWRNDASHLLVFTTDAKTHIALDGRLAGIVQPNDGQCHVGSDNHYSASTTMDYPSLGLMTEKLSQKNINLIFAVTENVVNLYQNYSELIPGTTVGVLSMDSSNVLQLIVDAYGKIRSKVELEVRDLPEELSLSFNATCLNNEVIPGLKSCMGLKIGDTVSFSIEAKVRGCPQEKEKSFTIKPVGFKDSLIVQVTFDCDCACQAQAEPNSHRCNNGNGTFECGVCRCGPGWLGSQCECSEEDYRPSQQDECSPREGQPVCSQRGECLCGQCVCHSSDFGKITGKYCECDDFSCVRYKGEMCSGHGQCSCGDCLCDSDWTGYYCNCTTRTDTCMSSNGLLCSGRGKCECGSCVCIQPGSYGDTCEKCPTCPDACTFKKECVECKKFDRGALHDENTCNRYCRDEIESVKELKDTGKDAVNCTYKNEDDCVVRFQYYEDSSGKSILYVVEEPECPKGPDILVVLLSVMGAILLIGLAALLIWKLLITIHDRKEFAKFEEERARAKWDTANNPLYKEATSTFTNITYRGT

B1: EGFL6 (wild-type, FLAG-EGFL6) (ligand, human, UniProt Q8IUX8-1 22-553, looked up)
chain: NAASARHHGLLASARQPGVCHYGTKLACCYGWRRNSKGVCEATCEPGCKFGECVGPNKCRCFPGYTGKTCSQDVNECGMKPRPCQHRCVNTHGSYKCFCLSGHMLMPDATCVNSRTCAMINCQYSCEDTEEGPQCLCPSSGLRLAPNGRDCLDIDECASGKVICPYNRRCVNTFGSYYCKCHIGFELQYISGRYDCIDINECTMDSHTCSHHANCFNTQGSFKCKCKQGYKGNGLRCSAIPENSVKEVLRAPGTIKDRIKKLLAHKNSMKKKAKIKNVTPEPTRTPTPKVNLQPFNYEEIVSRGGNSHGGKKGNEEKMKEGLEDEKREEKALKNDIEERSLRGDVFFPKVNEAGEFGLILVQRKALTSKLEHKDLNISVDCSFNHGICDWKQDREDDFDWNPADRDNAIGFYMAVPALAGHKKDIGRLKLLLPDLQPQSNFCLLFDYRLAGDKVGKLRVFVKNSNNALAWEKTTSEDEKWKTGKIQLYQGTDATKSIIFEAERGKGKTGEIAVDGVLLVSGLCPDSLLSVDD
Regarding B1, the “fold co-immunoprecipitation against EGFL6^RGE” value was 4.6 fold.
